Drawing on article PMC8043444, this text covers neutralisation of authentic SARS-CoV-2-Nluc on Vero E6 cells (IF/luc), IC50 and neutralisation of authentic SARS-CoV-2-Nluc on Vero E6 cells (IF/luc), IC90 for one substance.

For this experiment, the target named is SARS-CoV-2 RBD WT for SPR binding assays (SARS-CoV-2) (UniProt P0DTC2).

As to S309 IgG1 (LS) (antibody), the neutralisation of authentic SARS-CoV-2-Nluc on Vero E6 cells (IF/luc), IC50 was 78.9 and the neutralisation of authentic SARS-CoV-2-Nluc on Vero E6 cells (IF/luc), IC90 is 300.
